B1: Peregrin (Homo sapiens), P55201 (parent)
chain: MGVDFDVKTFCHNLRATKPPYECPVETCRKVYKSYSGIEYHLYHYDHDNPPPPQQTPLRKHKKKGRQSRPANKQSPSPSEVSQSPGREVMSYAQAQRMVEVDLHGRVHRISIFDNLDVVSEDEEAPEEAPENGSNKENTETPAATPKSGKHKNKEKRKDSNHHHHHNVSASTTPKLPEVVYRELEQDTPDAPPRPTSYYRYIEKSAEELDEEVEYDMDEEDYIWLDIMNERRKTEGVSPIPQEIFEYLMDRLEKESYFESHNKGDPNALVDEDAVCCICNDGECQNSNVILFCDMCNLAVHQECYGVPYIPEGQWLCRRCLQSPSRAVDCALCPNKGGAFKQTDDGRWAHVVCALWIPEVCFANTVFLEPIDSIEHIPPARWKLTCYICKQRGSGACIQCHKANCYTAFHVTCAQQAGLYMKMEPVRETGANGTSFSVRKTAYCDIHTPPGSARRLPALSHSEGEEDEDEEEDEGKGWSSEKVKKAKAKSRIKMKKARKILAEKRAAAPVVSVPCIPPHRLSKITNRLTIQRKSQFMQRLHSYWTLKRQSRNGVPLLRRLQTHLQSQRNCDQVGRDSEDKNWALKEQLKSWQRLRHDLERARLLVELIRKREKLKRETIKVQQIAMEMQLTPFLILLRKTLEQLQEKDTGNIFSEPVPLSEVPDYLDHIKKPMDFFTMKQNLEAYRYLNFDDFEEDFNLIVSNCLKYNAKDTIFYRAAVRLREQGGAVLRQARRQAEKMGIDFETGMHIPHSLAGDEATHHTEDAAEEERLVLLENQKHLPVEEQLKLLLERLDEVNASKQSVGRSRRAKMIKKEMTALRRKLAHQRETGRDGPERHGPSSRGSLTPHPAACDKDGQTDSAAEESSSQETSKGLGPNMSSTPAHEVGRRTSVLFSKKNPKTAGPPKRPGRPPKNRESQMTPSHGGSPVGPPQLPIMSSLRQRKRGRSPRPSSSSDSDSDKSTEDPPMDLPANGFSGGNQPVKKSFLVYRNDCSLPRSSSDSESSSSSSSSAASDRTSTTPSKQGRGKPSFSRGTFPEDSSEDTSGTENEAYSVGTGRGVGHSMVRKSLGRGAGWLSEDEDSPLDALDLVWAKCRGYPSYPALIIDPKMPREGMFHHGVPIPVPPLEVLKLGEQMTQEAREHLYLVLFFDNKRTWQWLPRTKLVPLGVNQDLDKEKMLEGRKSNIRKSVQIAYHRALQHRSKVQGEQSSETSDSD

Results on six variants are retold here after IntAct's records for PubMed 25281266.

Variants of B1 are the subject of the first assay. Conditions: with h2a1_human H2AC11, P0C0S8.
For F714A, the “effect of a mutation on the interaction” value is “disrupting interaction”.

Another assay covers variants of B1. The settings on record: with h4_human H4C16, P62805.
On to F714A, for which the “effect of a mutation on the interaction” value was “disrupting interaction”.

Variants of B1 are the subject of another assay. Conditions: with h2a1_human H2AC11, P0C0S8. This is another data set of the same source.
A709S: the “effect of a mutation on the interaction” value is “decreasing interaction”.

Variants of B1 are the subject of a further assay. Conditions: with h4_human H4C16, P62805. The source holds these as a separate data set.
As for A709S, the “effect of a mutation on the interaction” value was “decreasing interaction”.

The variants in another assay derive from B1. The settings on record: with h2a1_human H2AC11, P0C0S8. The source holds these as a separate data set.
As to C704A, the “effect of a mutation on the interaction” value is recorded as “decreasing interaction”.

A further assay covers variants of B1. The settings on record: with h4_human H4C16, P62805. The source holds these as a separate data set.
C704A: the “effect of a mutation on the interaction” value is “decreasing interaction”.

Variants of B1 are the subject of the next assay. The settings on record: with h2a1_human H2AC11, P0C0S8. This is another data set of the same source.
E661A: the “effect of a mutation on the interaction” value is on record as “decreasing interaction”.

The variants in another assay derive from B1. Conditions: with h4_human H4C16, P62805. The source holds these as a separate data set.
As for E661A, the “effect of a mutation on the interaction” value is reported as “decreasing interaction”.

In another assay the parent is B1. Conditions: with h2a1_human H2AC11, P0C0S8. The source holds these as a separate data set.
As to I713A, the “effect of a mutation on the interaction” value is “decreasing interaction”.

In the next assay the parent is B1. The settings on record: with h4_human H4C16, P62805. This is another data set of the same source.
As to I713A, the “effect of a mutation on the interaction” value is reported as “decreasing interaction”.

In the next assay the parent is B1. The settings on record: with h2a1_human H2AC11, P0C0S8. This is another data set of the same source.
Consider N708A, for which the “effect of a mutation on the interaction” value is given as “disrupting interaction”.

The next assay covers variants of B1. Conditions: with h4_human H4C16, P62805. The source holds these as a separate data set.
Turning to N708A, the “effect of a mutation on the interaction” value was “disrupting interaction”.
